Experimental data: US20250121043A1

Experiments:
Assay in all cases: cell-based or functional assay
[1] = molecular target: 17.6α/8.3β TCR (low affinity IGRP206-214-reactive Vα17.6/8.3β TCR)
[2] = molecular target: Vα17.5+ TCR (CDR3-invariant Vα17.5-Jα42 chain with a single TCRβ chain) on TCRαβ-transfectants
17.4α/8.3β TCR (8.3-TCR) = molecular target: 17.4α/8.3β TCR (8.3-TCR)

Substance: NRP-V7/K^d-coated nanoparticles (from UniProt P01902 22-305) (peptide-MHC)
- percentage of cells that had formed CD8 caps, 5 min of incubation with beads [1]: < 20%
- percentage of cells that had formed CD8 caps, 30 min of incubation with beads [1]: < 20%
- percentage of cells that had formed CD8 caps, 5 min of incubation with beads [2]: > 60%
- percentage of cells that had formed CD8 caps, 5 min of incubation with beads (17.4α/8.3β TCR (8.3-TCR)): < 20%
